{"source": "patent US20230272069A1", "about": "(INSTITUTE OF HEMATOLOGY AND BLOOD DISEASES HOSPITAL CHINESE …, published 2023)", "key": {"[1]": {"biological_target": "T1, CD19 antigen molecule (human, UniProt P15391 20-556)", "T1 sequence (looked up)": "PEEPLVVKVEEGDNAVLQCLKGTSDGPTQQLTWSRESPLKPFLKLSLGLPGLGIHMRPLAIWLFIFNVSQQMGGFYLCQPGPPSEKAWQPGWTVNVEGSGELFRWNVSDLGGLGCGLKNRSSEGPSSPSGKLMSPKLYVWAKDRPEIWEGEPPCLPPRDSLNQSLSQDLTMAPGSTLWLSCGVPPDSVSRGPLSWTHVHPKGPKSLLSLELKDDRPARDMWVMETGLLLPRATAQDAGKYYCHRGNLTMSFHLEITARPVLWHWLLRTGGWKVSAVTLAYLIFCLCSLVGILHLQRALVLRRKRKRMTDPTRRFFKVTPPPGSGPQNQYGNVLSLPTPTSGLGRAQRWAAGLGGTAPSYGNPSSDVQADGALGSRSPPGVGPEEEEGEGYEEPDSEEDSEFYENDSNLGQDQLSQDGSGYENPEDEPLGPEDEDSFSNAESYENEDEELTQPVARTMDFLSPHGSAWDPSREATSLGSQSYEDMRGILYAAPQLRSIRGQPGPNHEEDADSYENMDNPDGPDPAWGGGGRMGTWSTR", "assay": "cell-based or functional assay"}, "[2]": {"biological_target": "T2, CD22 antigen molecule (human, UniProt P20273 20-847)", "T2 sequence (looked up)": "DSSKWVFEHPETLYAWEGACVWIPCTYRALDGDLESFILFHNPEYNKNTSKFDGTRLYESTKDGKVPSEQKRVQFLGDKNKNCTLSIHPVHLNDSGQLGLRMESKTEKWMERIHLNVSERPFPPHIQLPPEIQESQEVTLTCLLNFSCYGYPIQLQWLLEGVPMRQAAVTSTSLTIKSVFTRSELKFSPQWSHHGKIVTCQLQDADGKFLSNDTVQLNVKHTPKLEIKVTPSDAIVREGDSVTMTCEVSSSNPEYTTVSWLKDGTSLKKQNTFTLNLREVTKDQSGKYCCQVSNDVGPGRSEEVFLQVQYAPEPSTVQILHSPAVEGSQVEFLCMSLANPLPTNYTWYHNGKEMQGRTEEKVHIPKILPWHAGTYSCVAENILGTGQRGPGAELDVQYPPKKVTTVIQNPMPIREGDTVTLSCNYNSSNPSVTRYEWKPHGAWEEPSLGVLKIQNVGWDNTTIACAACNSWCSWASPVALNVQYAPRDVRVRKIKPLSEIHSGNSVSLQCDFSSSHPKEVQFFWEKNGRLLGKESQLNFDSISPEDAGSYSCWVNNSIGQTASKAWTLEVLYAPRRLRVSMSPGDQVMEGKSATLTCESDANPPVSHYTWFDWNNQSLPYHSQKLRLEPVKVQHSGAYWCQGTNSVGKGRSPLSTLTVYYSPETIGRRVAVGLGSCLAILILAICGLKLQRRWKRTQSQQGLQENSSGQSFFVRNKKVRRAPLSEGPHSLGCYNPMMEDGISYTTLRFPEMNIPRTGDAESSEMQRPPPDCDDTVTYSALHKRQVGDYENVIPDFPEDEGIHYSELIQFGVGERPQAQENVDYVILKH", "assay": "cell-based or functional assay"}}, "data": [{"binder": "CD22 scFv-CD19 scFv-CD8α-4-1BB-CD3ζ CAR (other) DIELTQSPSSLAVSVGEKVTMSCKSSQSLLYSSNQKNYLAWYQQKPGQSPKLLIYWASTRESGVPDRFTGSGSGTDFTLTVSSVKAEDLAVYYCQQSYSYPFTFGSGTKLEIKRGGGGSGGGGSGGGGSQVKLQQSGPELVKPGASVKISCKASGYDFSISWMNWVRQRPGQGLEWIGRIYPGDGDSNYNGKFEGKATLTADKSSSTAYMQLSGLTSVDSAVYFCARTTTMIALYAMDYWGQGTTVTVSSEAAAKEAAAKEAAAKEAAAKEAAAKDIVLTQSPKFMSTSVGDRVSVTCKASQNVGTNVAWYQQKPGQSPKPLIYSATYRNSGVPDRFTGSGSGTDFTLTITNVQSKDLADYFCQQYNRYPYTSGGGTKLEIKRGGGGSGGGGSGGGGSQVQLQQSGAELVRPGSSVKISCKASGYAFSSYWMNWVKQRPGQGLEWIGQIYPGDGDTNYNGKFKGQATLTADKSSSTAYMQLSGLTSEDSAVYFCARKTISSVVDFYFDYWGQGTTLTVSSEFTTTPAPRPPTPAPTIASQPLSLRPEACRPAAGGAVHTRGLDFACDIYIWAPLAGTCGVLLLSLVITLYKRGRKKLLYIFKQPFMRPVQTTQEEDGCSCRFPEEEEGGCELRVKFSRSADAPAYQQGQNQLYNELNLGRREEYDVLDKRRGRDPEMGGKPRRKNPQEGLYNELQKDKMAEAYSEIGMKGERRRGKGHDGLYQGLSTATKDTYDALHMQALPPR", "values": [{"measurement": "degranulation level (CD107a on GFP+ cells) after co-culture with MV4-11-CD19 cells, E:T 1:1, 4 h", "setting": "[1]", "result": "≥ 25", "unit": "%"}, {"measurement": "degranulation level (CD107a on GFP+ cells) after co-culture with MV4-11-CD22 cells, E:T 1:1, 4 h", "setting": "[2]", "result": "≥ 15", "unit": "%"}]}, {"binder": "CD19 VL-CD22 VL-CD22 VH-CD19 VH-CD8α-4-1BB-CD3ζ CAR (other) DIVLTQSPKFMSTSVGDRVSVTCKASQNVGTNVAWYQQKPGQSPKPLIYSATYRNSGVPDRFTGSGSGTDFTLTITNVQSKDLADYFCQQYNRYPYTSGGGTKLEIKRGGGGSDIELTQSPSSLAVSVGEKVTMSCKSSQSLLYSSNQKNYLAWYQQKPGQSPKLLIYWASTRESGVPDRFTGSGSGTDFTLTVSSVKAEDLAVYYCQQSYSYPFTFGSGTKLEIKRGSTSGSGKPGSGEGSTKGQVKLQQSGPELVKPGASVKISCKASGYDFSISWMNWVRQRPGQGLEWIGRIYPGDGDSNYNGKFEGKATLTADKSSSTAYMQLSGLTSVDSAVYFCARTTTMIALYAMDYWGQGTTVTVSSGGGGSQVQLQQSGAELVRPGSSVKISCKASGYAFSSYWMNWVKQRPGQGLEWIGQIYPGDGDTNYNGKFKGQATLTADKSSSTAYMQLSGLTSEDSAVYFCARKTISSVVDFYFDYWGQGTTLTVSSEFTTTPAPRPPTPAPTIASQPLSLRPEACRPAAGGAVHTRGLDFACDIYIWAPLAGTCGVLLLSLVITLYKRGRKKLLYIFKQPFMRPVQTTQEEDGCSCRFPEEEEGGCELRVKFSRSADAPAYQQGQNQLYNELNLGRREEYDVLDKRRGRDPEMGGKPRRKNPQEGLYNELQKDKMAEAYSEIGMKGERRRGKGHDGLYQGLSTATKDTYDALHMQALPPR", "values": [{"measurement": "degranulation level (CD107a on GFP+ cells) after co-culture with MV4-11-CD19 cells, E:T 1:1, 4 h", "setting": "[1]", "result": "≥ 25", "unit": "%"}, {"measurement": "degranulation level (CD107a on GFP+ cells) after co-culture with MV4-11-CD22 cells, E:T 1:1, 4 h", "setting": "[2]", "result": "≥ 15", "unit": "%"}]}]}
